In experiment [1] the target is IRE1α LD 312TLPL315-GSGS mutant (human) (UniProt O75460). Description: AUC.
In experiment [2] the target is IRE1α LD 352LNYL355-GSGS mutant (human) (UniProt O75460). In words: AUC.

From doi:10.1101/2023.03.30.534746 come the findings set out here.

As usually defined, the stoichiometry N is a count of units in the complex or per binding partner.

Regarding “IRE1α LD 312TLPL315-GSGS mutant (from UniProt O75460 24-443) (domain or fragment)”, in experiment [1], the stoichiometry N was 2.

For “IRE1α LD 352LNYL355-GSGS mutant (from UniProt O75460 24-443) (domain or fragment)”, the stoichiometry N in experiment [2] was 2.
